Two molecules from article PMC6080606, “Transbilayer phospholipid movement facilitates the translocation of annexin across membranes” (Journal of Cell Science, 2018) can be followed below.

One assay addresses T1, recombinant annexin A5 (UniProt P08758 1-320, Alexa Fluor 647 conjugated (the labelled copy held at a constant 20 µg/ml; position not stated); the titrated copy of the dimerisation assay is unlabelled).
T1 construct: annexin A5 (annexin V), recombinant; The products were matched from the reagents list: the Alexa Fluor 647 conjugate is likely Biolegend 640912 and the unlabelled protein likely Novus NBP1-30265; Labelled and unlabelled copies are written as one molecule for the self-association; also called annexin V; annexin A5 conjugated to Alexa Fluor 647; source: recombinant, bought (reagents list: annexin-V …)
T1 sequence (looked up): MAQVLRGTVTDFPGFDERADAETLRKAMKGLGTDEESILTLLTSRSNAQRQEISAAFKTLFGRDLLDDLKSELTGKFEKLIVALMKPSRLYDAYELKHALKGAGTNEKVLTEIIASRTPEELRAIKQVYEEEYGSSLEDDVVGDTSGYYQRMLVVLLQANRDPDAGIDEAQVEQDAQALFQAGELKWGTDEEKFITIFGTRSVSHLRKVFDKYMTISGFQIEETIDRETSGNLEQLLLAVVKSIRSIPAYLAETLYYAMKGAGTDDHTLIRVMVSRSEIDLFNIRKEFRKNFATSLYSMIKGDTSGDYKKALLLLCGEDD
Kind of assay: MST; Nanotemper Monolith NT.115; constant annexin A5-Alexa Fluor 647 (20 µg/ml) mixed with cinnamycin from 7×10^−8 mM to 1 mM, 1 h at room temperature. The conditions noted are these: both partners purified.

Assay [1] deals with T2, recombinant annexin A5, P08758.
T2 chain: T1 sequence (looked up)
Put plainly: MST; Nanotemper Monolith NT.115; constant annexin A5-Alexa Fluor 647 (20 µg/ml) mixed with unlabelled recombinant annexin A5 from 7×10^−6 µg/ml to 100 µg/ml, 1 h at room temperature, with 5 µM Ca2+ (CaCl2); dimerisation (dimer to monomers), used as positive control. The conditions noted are these: remark: other sources report otherwise.

B1: cinnamycin (peptide, UniProt P29827 60-78, looked up)
peptide: CRQSCSFGPFTFVCDGNTK
notes: cinnamycin, a 19-amino-acid lantibiotic (the mature peptide cut from its precursor); source: bought: Santa Cruz Biotechnology (sc-391464)
One may read the Kd as the equilibrium constant for the complex coming apart. Regarding B1, in the assay with recombinant annexin A5, the Kd was determined as 614 µM.

B2: recombinant annexin A5, P08758 1-320 (natural protein)
chain: T1 sequence (looked up)
modifications: here or on the partner: Alexa Fluor 647 conjugated (the labelled copy held at a constant 20 µg/ml; position not stated); the titrated copy of the dimerisation assay is unlabelled; Alexa Fluor 647 conjugated (the labelled copy held at a constant 20 µg/ml; position not stated); the titrated copy of the dimerisation assay is unlabelled
Regarding B2, in assay [1], the Kd came to 1 µM.
